According to publication PMC11014249:
Where a chain is given by its changes, count along the chain named. Like-named read-outs stand apart in the source and are kept apart here.

How the values were obtained:
[1] = molecular target: RccR from Pseudomonas aeruginosa (P. aeruginosa); assay: SEC
RccR E200A [2] = molecular target: T1, RccR E200A (Pseudomonas aeruginosa, UniProt A0A071KWR3 1-293, E200A); assay: EMSA
T1 sequence: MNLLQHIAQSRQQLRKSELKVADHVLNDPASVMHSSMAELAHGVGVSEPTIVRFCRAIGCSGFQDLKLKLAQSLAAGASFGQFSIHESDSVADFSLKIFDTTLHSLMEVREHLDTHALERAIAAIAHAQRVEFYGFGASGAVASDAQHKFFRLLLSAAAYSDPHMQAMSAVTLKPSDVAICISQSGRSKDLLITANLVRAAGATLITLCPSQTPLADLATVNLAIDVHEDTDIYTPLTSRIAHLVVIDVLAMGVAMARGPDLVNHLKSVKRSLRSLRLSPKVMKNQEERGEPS

RccR E200A [3] = molecular target: T1, RccR E200A; assay: EMSA; remark: listed apart in the source
RccR ΔSLR = molecular target: T2, RccR ΔSLR (Pseudomonas aeruginosa, UniProt A0A071KWR3 1-274+278-293, internal_change); assay: EMSA
T2 sequence: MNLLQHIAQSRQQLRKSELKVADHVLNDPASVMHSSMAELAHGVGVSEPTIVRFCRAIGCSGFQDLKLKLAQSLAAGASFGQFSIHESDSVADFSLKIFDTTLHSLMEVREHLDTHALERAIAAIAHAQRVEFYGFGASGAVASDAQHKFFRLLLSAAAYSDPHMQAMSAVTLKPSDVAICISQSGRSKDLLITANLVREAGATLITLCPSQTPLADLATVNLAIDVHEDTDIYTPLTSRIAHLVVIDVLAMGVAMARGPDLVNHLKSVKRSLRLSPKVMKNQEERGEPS

RccR H148A = molecular target: T3, RccR H148A (Pseudomonas aeruginosa, UniProt A0A071KWR3 1-293, H148A); assay: EMSA
T3 sequence: T1 sequence with H148A, A200E

RccR H164A = molecular target: T4, RccR H164A (Pseudomonas aeruginosa, UniProt A0A071KWR3 1-293, H164A); assay: EMSA
T4 sequence: T1 sequence with H164A, A200E

RccR SSSS = molecular target: T5, RccR SSSS (Pseudomonas aeruginosa, UniProt A0A071KWR3 1-293, S139A;S183A;S185A;S188A); assay: EMSA
T5 sequence: T1 sequence with S139A, S183A, S185A, S188A, A200E

RccR T231A = molecular target: T6, RccR T231A (Pseudomonas aeruginosa, UniProt A0A071KWR3 1-293, T231A); assay: EMSA
T6 sequence: T1 sequence with A200E, T231A

RccR R152A = molecular target: T7, RccR R152A (Pseudomonas aeruginosa, UniProt A0A071KWR3 1-293, R152A); assay: EMSA
T7 sequence: T1 sequence with R152A, A200E

RccR K270A = molecular target: T8, RccR K270A (Pseudomonas aeruginosa, UniProt A0A071KWR3 1-293, K270A); assay: EMSA
T8 sequence: T1 sequence with A200E, K270A

RccR (PaRccR) = molecular target: T9, RccR (PaRccR) (Pseudomonas aeruginosa, UniProt A0A071KWR3 1-293); assay: EMSA
T9 sequence: T1 sequence with A200E

**Q.** For “RccR from Pseudomonas aeruginosa (natural protein)”, which stoichiometry N [1] is on record?
**A.** 4

B1: PaceA (dsDNA)
DNA 1: TCGTGTAGTAGTCTTGAAAAAACACTACAAAA
DNA 2: TTTTGTAGTGTTTTTTCAAGACTACTACACGA
**Q.** Does B1 bind (RccR E200A [2])?
**A.** binds

B2: PaceE (dsDNA)
DNA 1: ATCTGTAGTAAAACTACAAG
DNA 2: CTTGTAGTTTTACTACAGAT
**Q.** What does the source list for B2?
**A.** binding result (RccR E200A [3]): binds; binding result (RccR ΔSLR): binds; binding result (RccR H148A): binds; binding result (RccR H164A): binds; binding result (RccR SSSS): binds; binding result (RccR T231A): binds; binding result (RccR R152A): binds; binding result (RccR K270A): binds

B3: Variant1 (dsDNA)
DNA 1: ATCTGTAGTGGGACTACAAG
DNA 2: CTTGTAGTCCCACTACAGAT
**Q.** Does B3 bind (RccR (PaRccR))?
**A.** binds
